Test results as given in patent US20200055937A1 (REMD BIOTHERAPEUTICS, published 2020).

T1: CTLA4-his (UniProt P16410 36-161, limits assumed)
T1 construct: construct not described; also called Ag CTLA4-his; Antigen CTLA4-his; not shown: his tag
T1 sequence (looked up): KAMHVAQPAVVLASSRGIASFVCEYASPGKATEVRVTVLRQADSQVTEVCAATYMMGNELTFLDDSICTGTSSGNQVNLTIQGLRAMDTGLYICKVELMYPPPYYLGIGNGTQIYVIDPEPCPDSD

T2: CTLA4-Fc (UniProt P16410 36-161, limits assumed)
T2 sequence (looked up): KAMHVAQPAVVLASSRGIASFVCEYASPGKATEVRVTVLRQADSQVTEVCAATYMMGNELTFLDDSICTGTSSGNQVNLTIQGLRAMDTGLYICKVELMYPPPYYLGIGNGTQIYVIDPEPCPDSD

T3: cyno Macaque CTLA-4 (cyno Macaque, UniProt G7PL88 36-161)
T3 construct: ELISA antigen; construct not described; also called CynoCTLA-4; cyno CTLA-4
T3 sequence: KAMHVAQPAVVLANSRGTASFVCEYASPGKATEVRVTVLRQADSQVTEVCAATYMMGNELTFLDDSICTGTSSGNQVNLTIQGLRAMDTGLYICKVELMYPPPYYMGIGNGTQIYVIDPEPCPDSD

T4: human CTLA-4 (human, UniProt P16410 36-161, limits assumed)
T4 construct: also called HuCTLA-4; human cytotoxic T lymphocyte antigen-4
T4 sequence: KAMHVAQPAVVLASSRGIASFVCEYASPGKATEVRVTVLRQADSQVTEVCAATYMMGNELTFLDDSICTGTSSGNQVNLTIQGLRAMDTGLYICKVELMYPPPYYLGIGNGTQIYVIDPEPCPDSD


Experiments:
[1] = target: T1, CTLA4-his; assay: SPR Biacore T200, antibody from supernatant captured by anti-human Fc, CTLA4-his injected
Procedure: Affinity ranking of the fifteen humanized antibodies was determined using a Surface Plasmon Resonance (SPR) biosensor, Biacore T200 (GE Healthcare). Anti-human Fc gamma specific antibody was immobilized onto the sensor chip using amine coupling method. […] After equilibration, Ag CTLA4-his was injected for 300 seconds (association phase) followed by the injection of running buffer for 600s (dissociation phase). Responses of reference flow cell (flow cell 1) were subtracted from those of humanized antibodies flow cells during each cycle. The surface was regenerated before the injection of other humanized antibodies. The process was repeated until all antibodies are analyzed. The off-rates of humanized antibodies were obtained from fitting the experimental data locally to 1:1 interaction model using the Biacore 8K evaluation software. The antibodies were ranked by their dissociation rate constants (off-rates, kd).

[2] = target: T2, CTLA4-Fc; assay: cell-based or functional assay
[3] = target: T3, cyno Macaque CTLA-4; assay: ELISA, cyno CTLA-4 binding
[4] = target: T4, human CTLA-4; assay: ELISA, human CTLA-4 binding
[5] = target: T5, murine CTLA-4 (murine, UniProt P09793 36-161, limits assumed); assay: ELISA, murine CTLA-4 binding assay
T5 construct: ELISA antigen; construct not described; also called mouse CTLA-4

[6] = target: T4, human CTLA-4; assay: ligand blocking assay with purified proteins; competitor CD80
[7] = target: T4, human CTLA-4; assay: ligand blocking assay with purified proteins; competitor CD86
[8] = target: T4, human CTLA-4; assay: ratio of the IC50 for blocking CD80 to the IC50 for blocking CD86 on CTLA-4

Row | Kd [1] | koff [1] | kon [1] | IC50 (nM), IL-2 secreted by Jurkat cells co-cultured with CHO/CD80 cells, Experiment 1 [2] | IC50 (nM), IL-2 secreted by Jurkat cells co-cultured with CHO/CD80 cells, Experiment 2 [2] | EC50 [3] | EC50 [4] | binding result [5] | IC50 [6] | IC50 [7] | CD80/CD86 Blocking Ratio [8] | Binder
1 | 791 pM | 0.000523 s⁻¹ | 661000 M⁻¹ s⁻¹ | – | – | – | – | – | – | – | – | Humanized Ab 8 (VH3 + VL2) (antibody, human IgG1, kappa, V domains shown, Humanized IgG1 derived from MAb A4, full length, HEK293) VH: QVQLVQSGAEVKKPGASVKVSCKASGYKFTDHFINWVKQAPGQGLEWIGDINPNNGGTNSNQKFEGRVTLTVDTSISTAYMELSRLRSDDTAVYYCARLRREYFYAMDYWGQGTLVTVSS VL: DIVMTQSPLSLPVTPGEPASISCRSSKSLLHSNGITYLYWYLQKPGQSPQLLIYQMSNLASGVPDRFSSSGSGTDFTLKISRVEAEDVGVYYCAQNLELPLTFGGGTKVEIKR
2 | 830 pM | 0.000611 s⁻¹ | 736000 M⁻¹ s⁻¹ | – | – | – | – | – | – | – | – | Humanized Ab 4 (VH2 + VL1) (antibody, human IgG1, kappa, V domains shown, Humanized IgG1 derived from MAb A4, full length, HEK293) VH: QVQLVQSGAEVKKPGASVKVSCKASGYKFTDHFINWVRQAPGQGLEWIGDINPNNGGTNSNQKFEGRVTMTVDTSISTAYMELSRLRSDDTAVYYCARLRREYFYAMDYWGQGTLVTVSS VL: DIVMTQSPLSLPVTPGEPASISCRSSKSLLHSNGITYLYWYLQKPGQSPQLLIYQMSNLASGVPDRFSGSGSGTDFTLKISRVEAEDVGVYYCAQNLELPLTFGGGTKVEIKR
3 | 435 pM | 0.000397 s⁻¹ | 913000 M⁻¹ s⁻¹ | – | – | – | – | – | – | – | – | Humanized Ab 12 (VH4 + VL3) (antibody, human IgG1, kappa, Humanized IgG1 derived from MAb A4, full length, HEK293) heavy: not shown light: DIVMTQSPLSLPVTPGEPASISCRSSKSLLHSNGITYLYWYLQKPGQSPQLLIYQMSNLASGVPDRFSSSGSGTDFTLKISRVEAEDVGVYYCAQNLELPLTFGGGTKLEIKRTVAAPSVFIFPPSDEQLKSGTASVVCLLNNFYPREAKVQWKVDNALQSGNSQESVTEQDSKDSTYSLSSTLTLSKADYEKHKVYACEVTHQGLSSPVTKSFNRGEC
4 | 852 pM | 0.000288 s⁻¹ | 338000 M⁻¹ s⁻¹ | – | – | – | – | – | – | – | – | Humanized Ab 10 (VH4 + VL1) (antibody, human IgG1, kappa, V domains shown, Humanized IgG1 derived from MAb A4, full length, HEK293) VH: QVQLVQSGAEVKKPGASVKISCKASGYKFTDHFINWVKQAPGQGLEWIGDINPNNGGTNSNQKFEGRATLTVDTSISTAYMELSRLRSDDTAVYYCARLRREYFYAMDYWGQGTLVTVSS VL: DIVMTQSPLSLPVTPGEPASISCRSSKSLLHSNGITYLYWYLQKPGQSPQLLIYQMSNLASGVPDRFSGSGSGTDFTLKISRVEAEDVGVYYCAQNLELPLTFGGGTKVEIKR
5 | 956 pM | 0.000434 s⁻¹ | 454000 M⁻¹ s⁻¹ | – | – | – | – | – | – | – | – | Humanized Ab 7 (VH3 + VL1) (antibody, human IgG1, kappa, V domains shown, Humanized IgG1 derived from MAb A4, full length, HEK293) VH: QVQLVQSGAEVKKPGASVKVSCKASGYKFTDHFINWVKQAPGQGLEWIGDINPNNGGTNSNQKFEGRVTLTVDTSISTAYMELSRLRSDDTAVYYCARLRREYFYAMDYWGQGTLVTVSS VL: DIVMTQSPLSLPVTPGEPASISCRSSKSLLHSNGITYLYWYLQKPGQSPQLLIYQMSNLASGVPDRFSGSGSGTDFTLKISRVEAEDVGVYYCAQNLELPLTFGGGTKVEIKR
6 | 1160 pM | 0.000347 s⁻¹ | 300000 M⁻¹ s⁻¹ | – | – | – | – | – | – | – | – | Humanized Ab 6 (VH2 + VL3) (antibody, human IgG1, kappa, Humanized IgG1 derived from MAb A4, full length, HEK293) heavy: not shown light: DIVMTQSPLSLPVTPGEPASISCRSSKSLLHSNGITYLYWYLQKPGQSPQLLIYQMSNLASGVPDRFSSSGSGTDFTLKISRVEAEDVGVYYCAQNLELPLTFGGGTKLEIKRTVAAPSVFIFPPSDEQLKSGTASVVCLLNNFYPREAKVQWKVDNALQSGNSQESVTEQDSKDSTYSLSSTLTLSKADYEKHKVYACEVTHQGLSSPVTKSFNRGEC
7 | 1120 pM | 0.000345 s⁻¹ | 309000 M⁻¹ s⁻¹ | – | – | – | – | – | – | – | – | Humanized Ab 5 (VH2 + VL2) (antibody, human IgG1, kappa, Humanized IgG1 derived from MAb A4, full length, HEK293) heavy: not shown light: DIVMTQSPLSLPVTPGEPASISCRSSKSLLHSNGITYLYWYLQKPGQSPQLLIYQMSNLASGVPDRFSSSGSGTDFTLKISRVEAEDVGVYYCAQNLELPLTFGGGTKVEIKRTVAAPSVFIFPPSDEQLKSGTASVVCLLNNFYPREAKVQWKVDNALQSGNSQESVTEQDSKDSTYSLSSTLTLSKADYEKHKVYACEVTHQGLSSPVTKSFNRGEC
8 | 1170 pM | 0.000437 s⁻¹ | 375000 M⁻¹ s⁻¹ | – | – | – | – | – | – | – | – | Humanized Ab 3 (VH1 + VL3) (antibody, human IgG1, kappa, Humanized IgG1 derived from MAb A4, full length, HEK293) heavy: not shown light: DIVMTQSPLSLPVTPGEPASISCRSSKSLLHSNGITYLYWYLQKPGQSPQLLIYQMSNLASGVPDRFSSSGSGTDFTLKISRVEAEDVGVYYCAQNLELPLTFGGGTKLEIKRTVAAPSVFIFPPSDEQLKSGTASVVCLLNNFYPREAKVQWKVDNALQSGNSQESVTEQDSKDSTYSLSSTLTLSKADYEKHKVYACEVTHQGLSSPVTKSFNRGEC
9 | 542 pM | 0.00016 s⁻¹ | 295000 M⁻¹ s⁻¹ | – | – | – | – | – | – | – | – | Humanized Ab 13 (VH5 + VL3) (antibody, human IgG1, kappa, V domains shown, Humanized IgG1 derived from MAb A4, full length, HEK293) VH: QVQLVQSGAEVVKPGASVKISCKASGYKFTDHFINWVKQNPGQGLEWIGDINPNNGGTNSNQKFEGRATLTVDTSISTAYMELSRLRSDDTAVYYCARLRREYFYAMDYWGQGTLVTVSS VL: DIVMTQSPLSLPVTPGEPASISCRSSKSLLHSNGITYLYWYLQKPGQSPQLLIYQMSNLASGVPDRFSSSGSGTDFTLKISRVEAEDVGVYYCAQNLELPLTFGGGTKLEIKR
10 | 1000 pM | 0.000351 s⁻¹ | 350000 M⁻¹ s⁻¹ | – | – | – | – | – | – | – | – | Humanized Ab 2 (VH1 + VL2) (antibody, human IgG1, kappa, Humanized IgG1 derived from MAb A4, full length, HEK293) heavy: not shown light: DIVMTQSPLSLPVTPGEPASISCRSSKSLLHSNGITYLYWYLQKPGQSPQLLIYQMSNLASGVPDRFSSSGSGTDFTLKISRVEAEDVGVYYCAQNLELPLTFGGGTKVEIKRTVAAPSVFIFPPSDEQLKSGTASVVCLLNNFYPREAKVQWKVDNALQSGNSQESVTEQDSKDSTYSLSSTLTLSKADYEKHKVYACEVTHQGLSSPVTKSFNRGEC
11 | 1200 pM | 0.000338 s⁻¹ | 281000 M⁻¹ s⁻¹ | – | – | – | – | – | – | – | – | Humanized Ab 1 (VH1 + VL1) (antibody, human IgG1, kappa, V domains shown, Humanized IgG1 derived from MAb A4, full length, HEK293) VH: QVQLVQSGAEVKKPGASVKVSCKASGYKFTDHFINWVRQAPGQGLEWMGDINPNNGGTNSNQKFEGRVTMTRDTSISTAYMELSRLRSDDTAVYYCARLRREYFYAMDYWGQGTLVTVSS VL: DIVMTQSPLSLPVTPGEPASISCRSSKSLLHSNGITYLYWYLQKPGQSPQLLIYQMSNLASGVPDRFSGSGSGTDFTLKISRVEAEDVGVYYCAQNLELPLTFGGGTKVEIKR
12 | – | – | – | 27.3 nM | 16.6 nM | 45 pM | 49 pM | no binding | 641 pM | 271 pM | 2.37 | MAb A5 (32G4C12) (antibody, V domains shown, also called murine antibody A5) VH: QVQLQQSGPELVRPGASVKLSCKASGYTFTTYDINWVKQRPGQGLEWIGWIYPRDGSIIFNEKFKGKATLTVDTTSSTAYMELHSLTSEDSAVYFCARRGLLGPLDYWGQGTPLTVSS VL: DIVMTQSHKFMSTSVGDRVSITCKASQDVATTVAWYQQKPGQSPKLVIYWASTRHTGVPDRFTGSGSGTDFTLTISNVQSEDLADYFCQQYSSYPTFGVGTKLELK
13 | – | – | – | 26.4 nM | 22.3 nM | 10 pM | 77 pM | no binding | 12800 pM | 1620 pM | 7.91 | MAb A2 (7G10D3) (antibody, V domains shown, also called murine antibody A2) VH: QIQLVQSGPELKKPGETVKISCKASGYTFTTYGMSWVKQTPGKGLKWMGWINTYSGVPTYADDFKGRFAFSLETSASTAYLQINNLKNEDTATYFCARGRDYYGSSYRLFGVWGTGTTVTVSS VL: DIQMTQTTSSLSASLGDRVTISCRASQDISNYLNWYQQKPDGTVKLLIYYTSILNSGVPSKFSGSGSGTDYSLTISNLEQEDIATYFCQQGNTLPWTFGGGTKLEIK
14 | – | – | – | 22.7 nM | 14.9 nM | 54 pM | 26 pM | no binding | 822 pM | 369 pM | 2.23 | MAb A3 (32G12D2) (antibody, V domains shown, also called murine antibody A3) VH: QVQLQQPGAELVRPGSSVKLSCKASGYTFTSYWMHWVKQRPIQGLEWIGNIDPSDSETHYNQNFKDKATLTVDKSSSTAYLQLSSLTSEDSAVYYCARRYTSSSFDYWGQGTTLTVSS VL: DIQMTQTTSSLSASLGDRVTVSCRASQDIRNYLNWYQQKPDGTVKLLIYFTSKLHSGVPSRFSGSGSGTDYFLAISNLEQEDIATYFCQQGNTLPYTFGGGTKLEIK
